Values quoted from earlier work in publication PMC3036710.

Assays:
Assay in all cases: solid-phase binding
[1] = molecular target: CML-bovine serum albumin (Bos taurus) (UniProt P02769)
HMGB-1 (Homo sapiens) = HMGB-1 (Homo sapiens) (UniProt P09429)
[2] = molecular target: S100b calgranulin (Homo sapiens) (UniProt P04271)
Sequence of UniProt P04271 (P04271 2-92): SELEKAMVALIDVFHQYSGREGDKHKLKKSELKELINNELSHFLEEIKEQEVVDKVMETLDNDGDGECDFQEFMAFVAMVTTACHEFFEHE

Sequence of UniProt P09429 (P09429 whole entry): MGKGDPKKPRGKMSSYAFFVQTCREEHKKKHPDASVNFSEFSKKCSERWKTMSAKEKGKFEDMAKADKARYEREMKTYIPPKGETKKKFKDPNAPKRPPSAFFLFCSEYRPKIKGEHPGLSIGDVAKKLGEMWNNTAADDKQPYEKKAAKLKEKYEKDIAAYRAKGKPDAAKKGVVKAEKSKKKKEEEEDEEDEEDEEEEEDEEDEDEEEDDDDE
Sequence of UniProt P02769 (P02769 25-607): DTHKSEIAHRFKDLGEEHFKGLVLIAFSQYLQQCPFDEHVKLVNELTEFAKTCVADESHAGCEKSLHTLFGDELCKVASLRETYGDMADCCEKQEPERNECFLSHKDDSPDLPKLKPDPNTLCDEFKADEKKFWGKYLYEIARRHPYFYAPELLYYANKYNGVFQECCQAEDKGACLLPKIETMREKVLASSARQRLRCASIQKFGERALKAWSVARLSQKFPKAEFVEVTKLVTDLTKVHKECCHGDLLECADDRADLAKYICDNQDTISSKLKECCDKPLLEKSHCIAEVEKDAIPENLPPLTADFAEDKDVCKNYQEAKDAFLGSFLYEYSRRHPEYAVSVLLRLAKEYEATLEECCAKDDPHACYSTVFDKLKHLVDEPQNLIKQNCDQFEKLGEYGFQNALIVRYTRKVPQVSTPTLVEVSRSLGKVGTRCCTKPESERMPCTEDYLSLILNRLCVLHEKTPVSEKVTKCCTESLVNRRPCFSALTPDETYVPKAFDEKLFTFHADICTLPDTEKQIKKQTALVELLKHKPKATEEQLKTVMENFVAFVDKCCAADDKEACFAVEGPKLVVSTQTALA

## RAGE (from UniProt Q15109)
[1]
  Kd: 0.43 nM
HMGB-1 (Homo sapiens)
  Kd: 0.64 nM
[2]
  Kd: 0.45 nM
